Here are results for two molecules from patent US20210137940A1 (AstraZeneca / MedImmune, published 2021).

The target of this assay is Prostate-Specific Membrane Antigen (PSMA), as expressed on LNCaP cells (human, UniProt Q04609 1-750). As to the kind of experiment: cell-based or functional assay.
Chain of Prostate-Specific Membrane Antigen (PSMA), as expressed on LNCaP cells (Q04609 whole entry): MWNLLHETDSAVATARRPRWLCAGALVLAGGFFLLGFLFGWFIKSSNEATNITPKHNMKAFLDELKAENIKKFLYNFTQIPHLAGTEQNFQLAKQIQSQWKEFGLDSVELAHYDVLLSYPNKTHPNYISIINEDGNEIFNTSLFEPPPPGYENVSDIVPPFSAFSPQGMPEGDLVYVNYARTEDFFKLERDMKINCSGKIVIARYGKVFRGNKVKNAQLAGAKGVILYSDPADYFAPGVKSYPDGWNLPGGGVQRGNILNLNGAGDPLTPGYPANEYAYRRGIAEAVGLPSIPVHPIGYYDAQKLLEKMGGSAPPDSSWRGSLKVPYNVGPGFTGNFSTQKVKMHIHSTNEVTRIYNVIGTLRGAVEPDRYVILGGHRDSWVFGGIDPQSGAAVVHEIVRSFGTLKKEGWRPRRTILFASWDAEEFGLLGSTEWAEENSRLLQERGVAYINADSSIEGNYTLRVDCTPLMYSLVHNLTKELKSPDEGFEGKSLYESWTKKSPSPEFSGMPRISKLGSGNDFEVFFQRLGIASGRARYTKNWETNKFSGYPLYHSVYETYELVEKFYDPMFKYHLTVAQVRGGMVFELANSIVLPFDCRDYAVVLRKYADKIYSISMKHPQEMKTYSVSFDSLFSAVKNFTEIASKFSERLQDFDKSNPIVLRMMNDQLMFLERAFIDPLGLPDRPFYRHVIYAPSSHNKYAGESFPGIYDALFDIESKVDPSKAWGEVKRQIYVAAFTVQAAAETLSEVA

B1: HAKA-A (ADC of J415RHA+J415RKA anti-PSMA antibody conjugated to drug linker A) (antibody, V domains shown)
VH: EVQLVESGGGLVQPGGSLKLSCAASGFTFSNYWMNWVRQASGKGLEWVGEIRSQSNNFATHYAESVKGRFTISRDDSKNTAYLQMNSLKTEDTAVYYCTRRWNNFWGQGTTVTVSS
VL: DIQMTQSPSSVSASVGDRVTITCKASENVGTYVSWYQQKPGTAPKLLIYGASNRFTGVPSRFSGSGSATDFTLTINNLQPEDFATYYCGQSYTFPYTFGQGTKVEIK
modifications: PBD drug linker A conjugated to reduced cysteine thiols (positions not stated); measured DAR 1.17 per antibody
With B1, the “EC50 (µg/mL), in vitro cytotoxicity on LNCaP cells (Alamar Blue cell survival, 4-day incubation)” value is 0.00186 µg/mL.

B2: HAKB-A (ADC of J415RHA+J415RKB anti-PSMA antibody conjugated to drug linker A) (antibody, V domains shown)
VH: B1 VH
VL: B1 VL
modifications: PBD drug linker A conjugated to reduced cysteine thiols (positions not stated); measured DAR 1.86 per antibody
For B2, the “EC50 (µg/mL), in vitro cytotoxicity on LNCaP cells (Alamar Blue cell survival, 4-day incubation)” value is 0.00163 µg/mL.
